Assay results taken from patent US12466890.

Target: TL1A monomer mutant
Assay: method not stated (row 'Binds monomer mutant')

- Kd: 0.13 nM
Substance: Comparator antibody 2 (MK-7240)
